Biological target: T1, cAMP-responsive element-binding protein (CREB) (mouse (endogenous in primary cortical …, UniProt Q01147-1 1-341, phosphoserine at 133 (blotted as pCREB after FSK/KCl)))
T1 construct: Precipitated with an anti-CREB antibody and detected on blots as phosphorylated CREB (Ser133); also called pCREB; endogenous CREB; source: endogenous, mouse primary cortical neurons (12 DIV), formaldehyde-crosslinked, in lysate
Assay: co-IP; endogenous proteins; cortical neurons (12 DIV) treated with vehicle or FSK/KCl, crosslinked with 1% formaldehyde, lysed by sonication (50 mM Tris-HCl pH 8, 1% Triton X-100, 100 mM NaCl, 1 mM MgCl2); 2 mg protein immunoprecipitated overnight at 4 °C with anti-CREB or anti-CRTC1, Dynabeads protein G; blots of CRTC1 and pCREB; percent normalised to the maximum immunoprecipitation with the specific antibody in …
Conditions: partners not purified

T1 sequence (Q01147 other isoform, or with tags, fused parts or gaps): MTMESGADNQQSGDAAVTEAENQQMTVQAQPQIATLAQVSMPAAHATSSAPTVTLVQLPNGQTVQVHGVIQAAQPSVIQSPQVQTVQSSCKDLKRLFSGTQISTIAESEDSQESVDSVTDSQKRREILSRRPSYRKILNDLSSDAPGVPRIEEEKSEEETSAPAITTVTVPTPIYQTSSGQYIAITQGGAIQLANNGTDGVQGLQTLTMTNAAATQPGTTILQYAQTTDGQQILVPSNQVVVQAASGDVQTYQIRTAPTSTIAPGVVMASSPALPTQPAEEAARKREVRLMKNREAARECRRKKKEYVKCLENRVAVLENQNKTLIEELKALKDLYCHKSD

B1: CREB-regulated transcription coactivator-1 (CRTC1) (natural protein, UniProt Q68ED7 1-630, looked up)
chain: MATSNNPRKFSEKIALHNQKQAEETAAFEEVMKDLSLTRAARLQLQKSQYLQLGPSRGQYYGGSLPNVNQIGSSSVDLAFQTPFQSSGLDTSRTTRHHGLVDRVYRERGRLGSPHRRPLSVDKHGRQADSCPYGTVYLSPPADTSWRRTNSDSALHQSTMTPSQAESFTGGSQDAHQKRVLLLTVPGMEDTGAETDKTLSKQSWDSKKAGSRPKSCEVPGINIFPSADQENTTALIPATHNTGGSLPDLTNIHFPSPLPTPLDPEEPPFPALTSSSSTGSLAHLGVGGAGQGMNTPSSSPQHRPAVVSPLSLSTEARRQQAQQVSPTLSPLSPITQAVAMDALSLEQQLPYAFFTQTGSQQPPPQPQPPPPPPPVSQQQPPPPQVSVGLPQGGPLLPSASLTRGPQLPPLSVTVPSTLPQSPTENPGQSPMGIDATSAPALQYRTSAGSPATQSPTSPVSNQGFSPGSSPQHTSTLGSVFGDAYYEQQMTARQANALSRQLEQFNMMENAISSSSLYNPGSTLNYSQAAMMGLSGSHGGLQDPQQLGYTGHGGIPNIILTVTGESPPSLSKELSSTLAGVSDVSFDSDHQFPLDELKIDPLTLDGLHMLNDPDMVLADPATEDTFRMDRL
notes: also called endogenous CRTC1; source: endogenous, mouse primary cortical neurons (12 DIV), formaldehyde-crosslinked, in lysate
- percent of CRTC1 co-immunoprecipitated with anti-CREB (FSK/KCl), relative to its immunoprecipitation with anti-CRTC1: ~37%

Source: publication PMC5740062, “CRTC1 mediates preferential transcription at neuronal activity-regulated CRE/TATA promoters” (Scientific Reports, 2017)
